This note sets out measurements from the nanobody polyreactivity screen of Harvey et al. (2022).

A short description of the series: yeast display, Sf9 membrane polyspecificity reagent, FACS + sequencing; frameworks hold sequencing errors. In outline:
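Nanobodies from a synthetic yeast display library (Saccharomyces cerevisiae BJ5465), induced 36–48 hours with galactose, were stained 1 hour at 4 °C with 10% biotinylated, detergent-solubilized Sf9 membrane reagent, enriched on streptavidin microbeads, then FACS-sorted. Anti-HA (expression) and streptavidin (reagent binding) fluorescence set low and high (top ~1%) gates. Polyreactivity labels come from the gate of origin. Genes were colony-PCR amplified, MiSeq 2 × 250 sequenced and filtered by CDR length.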
Consider “QVQLVESGVGLVQAGGSLRLSCAASGRTFFGYAMGWYRQAPGKEREFVASISKRGGRTYYADSVKGRFTISRDNAKNSVYLQMNSLKPEDTAVYYCNAYESYPDPLTMEYWGQGTQVTVSS”, for which the “polyreactivity (PSR sort gate)” value is “high polyreactivity”.
Turning to “QVQLVESGVGLVQAGGSLRLSCAASGRTFSYYAMGWSRQAPGKERELVAAITSSGGSTYYADSVKGRFTISRDNAKNTVYLQMNSLKPEDTAVYYCAAEIWYYLWTTFERKYDYWGQGTQVTVSS”, the “polyreactivity (PSR sort gate)” value is recorded as “low polyreactivity”.
Under “QVQLVESGVGLVQAGGSLRLSCAASGRTFTPYAMGWYRQAPGKEREFVAAISIVGRTKYADSVKGRFTISRDNAKNTVYLQMNSLKPEDTAVYYCNAQDSRDRKFYWGYTRGHWGLGTQVTVSS” stands “low polyreactivity”.
As to “QVQLVESGVGLVQAGGSLRLSCAASGRTFVGNAMGWYRQAPGKERELVAAISVSGGSTYYADSVKGRFTISRDNAKNTVYVQMNSLKPEDTAGYYCAADGYYNRYGYRTSDESEYWGQGTQVTVTS”, the “polyreactivity (PSR sort gate)” value is recorded as “low polyreactivity”.
With “QVQLVESGVGLVQAGGSLRLSCAASGRTFVNNAMGWYRQAPGKERELVAAISQSGSRTYYADSVKRRFTISRDNAKNTVYLQMNSLKPEDTAVYYCAARGARYSTSDYWGQGTQVTVSS”, the “polyreactivity (PSR sort gate)” value is given as “high polyreactivity”.
Regarding “QVQLVESGVGLVQAGGSLRLSCAASGRTFYVYAMGWYRQAPGKERELVAAISLGGGSTYYADSVKGRFTNSRDNGKNTVYLQMNSLKPEDTAVYYCAADITRYRLGRDYWGQATQVTVSS”, the “polyreactivity (PSR sort gate)” value is recorded as “low polyreactivity”.
Regarding “QVQLVESGVGLVQAGGSLRLSCAASGRTSAQYGMGWYRQAPGKERELVATITTSGGRTYYADSVKGRFTISRDTAKNTVYLQMNSLKPEDTAVYYGAAEGWTTPTPTSDDNQWWYDYWGQGTQVTVSS”, the “polyreactivity (PSR sort gate)” value is recorded as “high polyreactivity”.
In the case of “QVQLVESGVGLVQAGGSLRLSCAASGSIFASYTMGWYIQAPGKERELVAAINRSGGSTYYADSVKGRFTISRDNAKNTVYFQMNSLKPDDTAVYYCAAGYIRRYYGYDYWGQGTQVTVSS”, the “polyreactivity (PSR sort gate)” value is given as “high polyreactivity”.
As to “QVQLVESGVGLVQAGGSLRLSCAASGSIFDINAMGWYRQAPGKERELVAVITDSGSTYYADSVKGRFTISRDNAKNTVYLQMNSLKPEDTAVYYCAAESSLLFFLMDYWGQGTQVTVSS”, the “polyreactivity (PSR sort gate)” value was “low polyreactivity”.
Under “QVQLVESGVGLVQAGGSLRLSCAASGSIFGVNMGWYRQAPGKERELVASITSGGSTNYADSVKGRFTISRDNAKNTVYLQMNSLKPEDTAVYYCATDRYVWGQGTQVTVSS” stands “low polyreactivity”; under “QVQLVESGVGLVQAGGSLRLSCAASGSIFKYYAMGWYRQAPGKERELVAAISSNGGRTYYADSVKGRFTISRDNAKNTDYLQMNSLKPEDTAVYYCARRYRRTGESEYDYWGQGTQVTVSS”, “high polyreactivity”.
On to “QVQLVESGVGLVQAGGSLRLSCAASGSIFQYNAMGWYRQAPGKERELVAAITSTGDTNYADSVKGRFTISRDNAKNTVYLQMNSLKAEDTAVYFCAADVYGTVRRVGWYYVGEGYDYWGQGTQVTVSS”, for which the “polyreactivity (PSR sort gate)” value is listed as “low polyreactivity”.
Take “QVQLVESGVGLVQAGGSLRLSCAASGSIFWQNTMGGYRPAPGKERELVATITSAGSTYYADSVKGRFTISRDNAKNTVSLQMNSLKPEDTAVYYGAKGHHPGHVFHPDYGYDYWGQGTQVTVSS”: the “polyreactivity (PSR sort gate)” value is given as “low polyreactivity”.
Under “QVQLVESGVGLVQAGGSLRLSCAASGSIFYNYAMGWYRQAPGKEREFVAAISWSGDTTYYADSVKGRFTISRDNAKNTVYLQMNSLKPEDTAVYYCAAESYIWFWRPYYYWGQGTQVTLSS” stands “low polyreactivity”.
For the sequence “QVQLVESGVGLVQAGGSLRLSCAASGSILDYYVMGWYRQAPGKDRELVAAIRGGGSTYYADSVKGRFTFSRDNEKNTVYLQMNSLKPEDTAVYYCAKDSQTARDFDYSGQGTQVTVSS”, the “polyreactivity (PSR sort gate)” value is reported as “low polyreactivity”.
As to “QVQLVESGVGLVQAGGSLRLSCAASGSILSKNAMAWYREAPGNERELVAAITWSGGSTYYADSVKGRFTISRDNEKNTVYLQMNSLKPEDTAVSYCAADLDWSPHFGLPYDYWGQGTQVTVSS”, the “polyreactivity (PSR sort gate)” value is “low polyreactivity”.
